Test results reported in patent publication US7579150B1, “Mobile RNA acts as a signal to regulate plant growth and development” (Iowa State University Research Foundation, Inc., priority 2004, dated 2009).

T1: GAD protein alone (GAL4 activation domain) (UniProt P04386 768-881, limits assumed)
T1 construct: domain: GAD; Negative control of the immunoprecipitation assay
T1 sequence (looked up): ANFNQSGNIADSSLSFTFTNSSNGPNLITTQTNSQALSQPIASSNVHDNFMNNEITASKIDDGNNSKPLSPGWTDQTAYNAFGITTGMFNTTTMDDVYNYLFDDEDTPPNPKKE

T2: GAD:POTH1 fusion protein (full-length POTH1 fused to the GAL4 activation domain) (Solanum tuberosum, 35S-methionine labelled (in vitro translation))
T2 construct: In vitro transcribed/translated bait of the immunoprecipitation assay; no 35S label there; also called POTH1:GAD
T2 chain: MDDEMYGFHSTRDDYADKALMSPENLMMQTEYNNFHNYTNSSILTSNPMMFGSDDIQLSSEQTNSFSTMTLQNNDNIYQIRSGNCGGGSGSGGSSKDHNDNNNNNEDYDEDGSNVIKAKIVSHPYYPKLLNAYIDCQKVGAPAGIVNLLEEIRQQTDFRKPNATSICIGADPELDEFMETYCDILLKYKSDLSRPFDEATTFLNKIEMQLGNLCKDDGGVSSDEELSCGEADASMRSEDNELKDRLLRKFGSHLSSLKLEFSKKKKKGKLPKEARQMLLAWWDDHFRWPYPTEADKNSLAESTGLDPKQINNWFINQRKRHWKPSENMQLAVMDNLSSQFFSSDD


How the values were obtained:
[1] = biological target: T3, StBEL-05 in pBridge (GAL4 DNA-binding domain fusion) (Solanum tuberosum); test: yeast two-hybrid, reciprocal orientation
T3 construct: Range derived as for m2

[2] = biological target: T1, GAD protein alone (GAL4 activation …); test: immunoprecipitation of in vitro translated 35S-labelled proteins with anti-GAD antibodies
Description: (§1) In vitro binding experiments were performed as described by Ni et al., "PIF3, a Phytochrome-Interacting Factor Necessary for Normal Photoinduced Signal Transduction, is a Novel Basic Helix-Loop-Helix Protein," *Cell* 95:657-667 (1998), which is hereby incorporated by reference in its entirety. The full-length sequence for POTH1 was cloned into a pET17b/GAD fusion cassette and transcribed under the control of the T7 promoter. The BEL cDNAs were cloned into pGEM11Z vectors and were transcribed under the control of the T7 promoter. ^35S-methionine labeled bait and prey proteins were synthesized using the TnT in vitro transcription-translation kit (Promega) according to the manufacturer's protocols. Each 50 µl TnT reaction contained 2.0 µg of template plasmid DNA and […] (20 µCi) of labeled ^35S-methionine. The POTH1:GAD/BEL complex was immunoprecipitated with anti-GAD antibodies (Santa Cruz Biotechnology, CA). The proteins from the pellet (one-half the fraction) and for the prey (one-fourth of the reaction volume) were resolved on a 10% SDS-PAGE gel and visualized by autoradiography.

[3] = biological target: T2, GAD:POTH1 fusion protein (full-length …); test: immunoprecipitation of in vitro transcribed/translated proteins
Description: as §1

[4] = biological target: T2, GAD:POTH1 fusion protein (full-length …); test: co-immunoprecipitation of in vitro translated 35S-labelled proteins with anti-GAD antibodies, SDS-PAGE and autoradiography
Description: as §1

Row | Binder | binding result [1] | binding result [2] | binding result [3] | binding result [4]
1 | pBHD9 construct (first 114 aa of POTH1) cloned into the pGAD vector (GAL4 activation domain fusion) (other, not shown: large carriers, also called pBDH9 construct in pGAD) MDDEMYGFHSTRDDYADKALMSPENLMMQTEYNNFHNYTNSSILTSNPMMFGSDDIQLSSEQTNSFSTMTLQNNDNIYQIRSGNCGGGSGSGGSSKDHNDNNNNNEDYDEDGSN | no binding | – | – | –
2 | StBEL-13 protein synthesized in vitro from pGEM11Z (other, 35S-methionine labelled (in vitro translation), BEL cDNA cloned into pGEM11Z under the T7 promoter; also called p11Z-13) MVMGGGASSQQLGYAKNHTPNVAESMQLFLMNPQPRSPSPSPPNSTSSTLHMLLPNPSSTSTLQGFPNPAEGSFGQFITWGNGGASAATATHHLNAQNEIGGVNVVESQGLSLSLSSSLQHKAEELQMSGEAGGMMFFNQGGSSTSGQYRYKNLNMGGSGVSPNIHQVHVGYGSSLGVVNVLRNSKYAKAAQELLEEFCSVGRGKLKKTNNKAAANNPNTNPSGANNEASSKDVPTLSAADRIEHQRRKVKLLSMVDEVDRRYNHYCEQMQMVVNSFDLVMGFGTAVPYTALAQKAMSRHFRCLKDAIGAQLKQSCELLGEKDAGNSGLTKGETPRLKMLEQSLRQQRAFHQMGMMEQEAWRPQRGLPERSVNILRAWLFEHFLHPYPSDADKHLLARQTGLSRNQVSNWFINARVRLWKPMVEDMYQQEAKDEDGDGDEKSQSQNSGNNIIAQTPTPNSLTNTSSTNMTTTTAPTTTTALAAAETGTAATPITVTSSKRSQINATDSDPSLVAINSFSENQATFPTNIHDPDDCRRGNLSGDDGTTTHDHMGSTMIRFGTTAGDVSLTLGLRHAGNLPENTHFFG | – | no binding | binds | –
3 | StBEL-30 protein synthesized in vitro from pGEM11Z (other, 35S-methionine labelled (in vitro translation), BEL cDNA cloned into pGEM11Z under the T7 promoter; also called p11Z-30) MATYFPSPNNQRDADQTFQYFRQSLPESYSEASNAPENMMVFMNYSSSGAYSDMLTGTSQQQHNCIDIPSIGATPFNTSQQEILSNLGGSQMGIQDFSSWRDSRNEMLADNVFQVAQNVQGQGLSLSLGSNIPSGIGISHVQSQNPNQGGGFNMSFGDGDNSQPKEQRNADYFPPDNPGRDLDAMKGYNSPYGTSSIARTIPSSKYLKAAQYLLDEVVSVRKAIKEQNSKKELTKDSRESDVDSKNISSDTPANGGSNPHESKNNQSELSPTEKQEVQNKLAKLLSMLDEIDRRYRQYYHQMQIVVSSFDVVAGEGAAKPYTALALQTISRHFRCLRDAICDQIRASRRSLGEQDASENSKAIGISRLRFVDHHIRQQRALQQLGMMQQHAWRPQRGLPESSVSVLRAWLFEHFLHPYPKDSDKIMLARQTGLTRSQVSNWFINARVRLWKPMVEEMYKEEAGDAKIDSNSSSDVAPRLATKDSKVEERGELHQNAASEFEQYNSGQILESKSNHEADVEMEGASNAETQSQSGMENQTGEPLPAMDNCTLFQDAFVQSNDRFSEFGSFGSGNVLPNGVSLTLGLQQGEGSNLPMSIETHVSYVPLRADDMYSTAPTTMVPETAEFNCLDSGNRQQPFWLLPSAT | – | no binding | – | binds
